Substitutions are numbered along the chain they refer to. Names may count otherwise. Where two headings read alike, the source gives them in different places.
T1: medium-affinity receptor IL-2Rβ/γ on human cells (Mo7e cell line; human CD8+T and NK cells) (human, UniProt P14784 27-551; P31785 23-369)
T1 sequence (looked up) 1: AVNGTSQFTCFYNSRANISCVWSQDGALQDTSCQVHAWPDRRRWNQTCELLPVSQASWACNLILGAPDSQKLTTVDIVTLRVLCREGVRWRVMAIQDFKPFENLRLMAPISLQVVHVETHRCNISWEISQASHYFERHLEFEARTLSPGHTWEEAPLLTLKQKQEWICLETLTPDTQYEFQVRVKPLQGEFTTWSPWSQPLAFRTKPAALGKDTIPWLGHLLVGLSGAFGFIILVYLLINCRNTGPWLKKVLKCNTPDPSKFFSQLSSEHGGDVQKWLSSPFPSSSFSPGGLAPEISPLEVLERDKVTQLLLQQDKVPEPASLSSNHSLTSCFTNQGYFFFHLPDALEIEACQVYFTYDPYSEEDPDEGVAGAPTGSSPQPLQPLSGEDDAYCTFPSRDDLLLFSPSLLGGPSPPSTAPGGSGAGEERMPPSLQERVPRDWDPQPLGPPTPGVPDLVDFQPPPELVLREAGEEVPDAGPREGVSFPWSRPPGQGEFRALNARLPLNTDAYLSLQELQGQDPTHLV
T1 sequence (looked up) 2: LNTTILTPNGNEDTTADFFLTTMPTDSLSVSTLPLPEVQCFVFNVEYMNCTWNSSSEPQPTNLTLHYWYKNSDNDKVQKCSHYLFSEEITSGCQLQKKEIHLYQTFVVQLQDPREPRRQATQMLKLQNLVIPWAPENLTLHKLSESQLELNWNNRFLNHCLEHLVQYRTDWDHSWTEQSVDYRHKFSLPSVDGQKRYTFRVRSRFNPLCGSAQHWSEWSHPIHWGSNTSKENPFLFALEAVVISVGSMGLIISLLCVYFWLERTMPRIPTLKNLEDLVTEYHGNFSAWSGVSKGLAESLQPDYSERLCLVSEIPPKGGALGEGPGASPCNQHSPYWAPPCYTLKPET

T2: IL-2 receptor IL-2Rα/β/γ on human peripheral blood Treg cells (human, UniProt P01589 22-272; P14784 27-551; P31785 23-369)
T2 sequence (looked up) 1: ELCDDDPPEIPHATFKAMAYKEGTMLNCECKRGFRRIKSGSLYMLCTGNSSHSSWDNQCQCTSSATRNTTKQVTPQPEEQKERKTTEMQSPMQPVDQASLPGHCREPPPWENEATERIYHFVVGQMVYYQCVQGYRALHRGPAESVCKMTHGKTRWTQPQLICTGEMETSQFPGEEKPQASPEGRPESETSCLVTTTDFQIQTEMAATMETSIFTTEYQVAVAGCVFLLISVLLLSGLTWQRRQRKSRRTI
T2 sequence (looked up) 2: T1 sequence (looked up) 1
T2 sequence (looked up) 3: T1 sequence (looked up) 2

T3: his-tagged human IL-2Rα recombinant protein (SinoBiological, Cat #10165-H08H) (human, UniProt P01589 22-213)
T3 construct: Bought protein; also called IL-2Rα (His Tag)
T3 sequence: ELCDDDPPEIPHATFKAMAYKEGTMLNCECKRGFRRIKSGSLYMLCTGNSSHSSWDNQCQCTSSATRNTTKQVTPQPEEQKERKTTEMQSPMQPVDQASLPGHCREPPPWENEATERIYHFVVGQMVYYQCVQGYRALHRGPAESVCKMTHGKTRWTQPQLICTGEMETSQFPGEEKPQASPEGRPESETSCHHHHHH

T4: high-affinity receptor IL-2Rα/β/γ on CTLL2 cells (mouse-derived cell line) (mouse, UniProt P01590 22-268; P16297 27-539; P34902 23-369)
T4 sequence (looked up) 1: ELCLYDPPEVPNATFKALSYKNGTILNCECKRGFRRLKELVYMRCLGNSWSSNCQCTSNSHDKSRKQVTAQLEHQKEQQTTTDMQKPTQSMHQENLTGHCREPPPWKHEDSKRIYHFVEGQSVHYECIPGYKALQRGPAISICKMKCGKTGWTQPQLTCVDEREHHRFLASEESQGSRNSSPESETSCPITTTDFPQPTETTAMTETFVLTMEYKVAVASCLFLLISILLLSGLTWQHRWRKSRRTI
T4 sequence (looked up) 2: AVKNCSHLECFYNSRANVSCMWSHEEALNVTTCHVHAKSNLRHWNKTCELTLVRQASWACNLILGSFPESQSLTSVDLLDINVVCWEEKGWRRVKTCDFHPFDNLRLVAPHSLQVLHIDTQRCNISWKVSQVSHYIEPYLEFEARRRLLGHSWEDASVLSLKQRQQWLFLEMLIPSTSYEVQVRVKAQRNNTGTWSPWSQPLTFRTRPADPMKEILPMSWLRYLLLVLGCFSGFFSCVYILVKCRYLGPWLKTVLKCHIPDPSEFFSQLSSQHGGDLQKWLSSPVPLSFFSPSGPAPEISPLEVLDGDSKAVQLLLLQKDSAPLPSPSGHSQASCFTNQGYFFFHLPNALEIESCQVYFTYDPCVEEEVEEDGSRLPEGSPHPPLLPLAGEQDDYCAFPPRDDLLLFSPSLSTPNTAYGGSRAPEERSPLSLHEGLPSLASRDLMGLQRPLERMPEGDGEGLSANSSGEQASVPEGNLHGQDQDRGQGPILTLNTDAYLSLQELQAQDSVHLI
T4 sequence (looked up) 3: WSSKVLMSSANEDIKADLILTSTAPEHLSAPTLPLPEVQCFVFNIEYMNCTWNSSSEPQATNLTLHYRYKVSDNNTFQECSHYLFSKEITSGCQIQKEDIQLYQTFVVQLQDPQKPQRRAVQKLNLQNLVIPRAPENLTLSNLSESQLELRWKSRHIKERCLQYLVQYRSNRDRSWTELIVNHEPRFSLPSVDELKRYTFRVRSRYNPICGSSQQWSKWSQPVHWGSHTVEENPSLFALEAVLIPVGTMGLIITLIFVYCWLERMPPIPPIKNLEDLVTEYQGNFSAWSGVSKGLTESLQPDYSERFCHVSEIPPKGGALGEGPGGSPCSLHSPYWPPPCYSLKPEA

B1: PEGylated IL-2-23 (ligand)
chain: MAPTSSSTKKTCLQLEHLLLDLQMILNGIQSMHIDATLYMPKKATELKHLQCLEEELKPLEEVLNLAQSKNFHLRPRDLISNINVIVLELKGSETTFMCEYADETATIVEFLNRWITFAQSIISTCT
modifications: mono-PEGylated with 20 kDa mPEG-butyraldehyde (sodium cyanoborohydride); site not stated
notes: also called PEG-IL-2-23
B2: IL-2-04 (L70C/P82C) (ligand)
chain: MAPTSSSTKKTQLQLEHLLLDLQMILNGINNYKNPKLTRMLTFKFYMPKKATELKHLQCLEEELKPLEEVCNLAQSKNFHLRCRDLISNINVIVLELKGSETTFMCEYADETATIVEFLNRWITFAQSIISTLT
notes: The entry already carries the mutations and C125A and begins with M. Made in E. coli
B3: IL-2-05 (G27C/F78C) (ligand)
chain: B2 chain with G28C, C71L, F79C, C83P
notes: as for B2
B4: PEGylated IL-2-22 (ligand)
chain: B2 chain with N27Q, N30S, F43A, C71L, N72Q, L73G, C83P
modifications: mono-PEGylated with 20 kDa mPEG-butyraldehyde (sodium cyanoborohydride); site not stated
notes: also called PEG-IL-2-22
B5: PEGylated IL-2-10 (ligand)
chain: B2 chain with N27Q, N31S, F43A, C71L, L73G, C83P
modifications: mono-PEGylated with 20 kDa mPEG-butyraldehyde (sodium cyanoborohydride); site not stated
notes: also called PEG-IL-2-10

Columns and labels:
[1] = molecular target: T1, medium-affinity receptor IL-2Rβ/γ on …; experiment: cell-based or functional assay
[2] = molecular target: T2, IL-2 receptor IL-2Rα/β/γ on human …; experiment: cell-based or functional assay
[3] = molecular target: T3, his-tagged human IL-2Rα recombinant …; experiment: BLI (Octet RED96e), His-tagged IL-2Rα on HIS1K sensor
Experimental: The HIS1K biosensor (Fortebio, 18-5120) was immersed into 200 μL buffer (PBS, pH 7.4, 0.02% tween-20, 0.1% BSA) for 10 minutes, for wetting treatment. Then, human IL-2Rα with His tag (SinoBiological, Cat #10165-H08H) was dissolved in PBS pH 7.4, 0.02% tween-20 and 0.1% BSA, and the sensor was placed in 200 μL of such solution. The sensor was placed in 200 μL buffer (PBS pH 7.4, 0.02% tween-20, 0.1% BSA) to wash off the excess IL-2Rα.

[4] = molecular target: T1, medium-affinity receptor IL-2Rβ/γ on …; experiment: cell-based or functional assay; remark: listed apart in the source
[5] = molecular target: T1, medium-affinity receptor IL-2Rβ/γ on …; experiment: cell-based or functional assay; remark: listed apart in the source
[6] = molecular target: T5, IL-2Rβ/γ-Fc heterodimer (IL-2Rβ-Fc-hole with IL-2Rγ-Fc-knob); experiment: SPR (Biacore), IL-2Rβ/γ-Fc captured on Protein A chip
T5 construct: Co-expressed in HEK293 cells and purified with Protein A and Superdex 200
Experimental: (§1) The Protein A sensor chip (GE, Cat #29127556) of the Biacore instrument (Biacore T200, GE) was used to capture IL-2Rβ/γ-Fc, wherein IL-2Rβ/γ-Fc was diluted with 1×HBS-EP to 1 μg/mL, and flowed at a flow rate of 10 μL/min for 30 seconds. […] The Biacore instrument (Biacore X100, GE) was used to detect the reaction in real time, to obtain association and dissociation curves. After each cycle of dissociation was completed, the chip was washed and regenerated with 10 mM Gly-HCl pH 1.5.

[7] = molecular target: T5, IL-2Rβ/γ-Fc heterodimer (IL-2Rβ-Fc-hole …); experiment: SPR (Biacore), IL-2Rβ/γ-Fc captured on Protein A chip, 1:1 model
Experimental: as §1
Target sequence in this assay (chain, as listed by the source limits assumed, chain 1 of 2): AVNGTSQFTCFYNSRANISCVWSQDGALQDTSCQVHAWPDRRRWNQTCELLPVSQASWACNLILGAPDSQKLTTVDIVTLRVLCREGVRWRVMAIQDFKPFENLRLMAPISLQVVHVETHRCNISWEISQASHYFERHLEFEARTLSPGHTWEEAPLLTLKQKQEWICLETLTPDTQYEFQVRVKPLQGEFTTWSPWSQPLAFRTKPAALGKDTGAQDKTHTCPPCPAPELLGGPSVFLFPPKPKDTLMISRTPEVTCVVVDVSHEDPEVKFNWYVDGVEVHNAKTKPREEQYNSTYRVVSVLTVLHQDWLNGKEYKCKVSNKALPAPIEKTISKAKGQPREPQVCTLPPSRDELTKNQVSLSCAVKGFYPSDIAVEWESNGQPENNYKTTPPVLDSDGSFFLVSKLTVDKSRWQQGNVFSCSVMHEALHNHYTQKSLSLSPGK
Target sequence in this assay (chain, as listed by the source limits assumed, chain 2 of 2): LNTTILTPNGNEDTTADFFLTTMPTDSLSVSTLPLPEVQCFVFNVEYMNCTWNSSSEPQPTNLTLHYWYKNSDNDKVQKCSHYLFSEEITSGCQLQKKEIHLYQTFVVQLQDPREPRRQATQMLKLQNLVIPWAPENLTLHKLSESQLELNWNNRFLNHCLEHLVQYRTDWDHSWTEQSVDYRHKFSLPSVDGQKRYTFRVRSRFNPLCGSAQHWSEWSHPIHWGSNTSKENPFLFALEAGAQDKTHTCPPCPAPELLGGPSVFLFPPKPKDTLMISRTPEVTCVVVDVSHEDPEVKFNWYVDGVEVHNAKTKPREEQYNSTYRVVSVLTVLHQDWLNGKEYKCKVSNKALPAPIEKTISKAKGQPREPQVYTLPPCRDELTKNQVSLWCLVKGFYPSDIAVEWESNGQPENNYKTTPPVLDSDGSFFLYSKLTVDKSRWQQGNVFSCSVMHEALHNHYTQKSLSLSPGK

[8] = molecular target: T3, his-tagged human IL-2Rα recombinant …; experiment: ELISA, his-tagged IL-2Rα coated, HRP anti-IL-2 polyclonal detection
Experimental: 96-well microtiter plate was coated with 2 μg/mL his-tagged IL-2Rα recombinant protein (SinoBiological, Cat #10165-H08H), and incubated overnight at 4° C. The plate was washed with washing solution for three times, 250 μl per well. For each time of washing, the plate was shaken for 10 seconds to ensure sufficient washing. 200 μl/well blocking solution was added and incubated at room temperature for 2 hours. The plate was washed with washing solution for three times, 250 μl per well. For each time of washing, the plate was shaken for 10 seconds to ensure sufficient washing. […] The plate was incubated for 1 hour at room temperature. The plate was washed with washing solution for three times, 250 μl per well. […] The plate was incubated for 1 hour at room temperature. The plate was washed with washing solution for three times, 250 μl per well. 100 μl TMB was added to each well, and the reaction was performed for 15 minutes in the dark. 50 μl of 0.16 M sulfuric acid was added to each well.

[9] = molecular target: T4, high-affinity receptor IL-2Rα/β/γ on …; experiment: cell-based or functional assay
[10] = molecular target: T4, high-affinity receptor IL-2Rα/β/γ on …; experiment: cell-based or functional assay; remark: listed apart in the source

Binder | EC50 (STAT5 phosphorylation in human CD8+T cells) [1] | relative activity (STAT5 phosphorylation in human CD8+T cells) [1] | EC50 (STAT5 phosphorylation in human Treg cells) [2] | relative biological activity (STAT5 phosphorylation in human Treg cells) [2] | binding result [3] | EC50 (STAT5 phosphorylation in human NK cells) [4] | relative activity (STAT5 phosphorylation in human NK cells) [4] | EC50 (Mo7e cell proliferation) [5] | relative biological activity (Mo7e cell proliferation) [5] | Kd [6] | koff [6] | kon [6] | Kd [7] | koff [7] | kon [7] | EC50 [8] | relative biological activity (CTLL2 cell proliferation) [9] | EC50 (CTLL2 cell proliferation) [10] | relative biological activity (CTLL2 cell proliferation) [10]
B1 | 14.4 nM | 16% | 4.24 nM | 0.01% | no binding (tested: 133.3 nM) | 2.88 nM | 17% | 23.4 nM | 10% | 1.86 nM | 0.000649 s⁻¹ | 350000 M⁻¹ s⁻¹ |  |  |  |  |  |  | 
B2 |  |  |  |  |  |  |  |  |  |  |  |  | 0.302 nM | 0.00015 s⁻¹ | 498000 M⁻¹ s⁻¹ | 0.87 nM | 176% |  | 
B3 |  |  |  |  |  |  |  |  |  |  |  |  | 0.288 nM | 9.68e-05 s⁻¹ | 336000 M⁻¹ s⁻¹ | 0.6 nM | 229% |  | 
B4 |  |  |  |  | no binding (tested: 133.3 nM) |  |  | 34.8 nM | 7% | 3.54 nM | 0.000549 s⁻¹ | 155000 M⁻¹ s⁻¹ |  |  |  |  |  | 39.2 nM | 0.1%
B5 | 8.97 nM | 26% | 2.65 nM | 0.02% | no binding (tested: 133.3 nM) | 2 nM | 24% | 13.2 nM | 19% | 0.86 nM | 0.00119 s⁻¹ | 1.38e+06 M⁻¹ s⁻¹ |  |  |  |  |  | 35.3 nM | 0.2%

Source: US20220056094A1 (JIANGSU HENGRUI MEDICINE, published 2022)
